These results are taken from article PMC3774140.

Assay [1] concerns the target SKN-1 50 amino acid bait construct encoding the lax120(S245L) mutation (C. elegans). Nature of the assay: two-hybrid.
Assay [2] has as its target SKN-1 50 amino acid bait construct encoding the lax188(E237K) mutation (C. elegans). Kind of assay: two-hybrid.

Turning to “PGAM-5 (Y2H prey from the cDNA library) (natural protein)”, the percent decrease of the interaction against the wild-type 50-mer bait is 75% in assay [1] and 72% in assay [2].
